Several values for one entry are separate records, joined by “and”; a condition that tells them apart may be missing. Equal values may be shown once. Read-outs that look alike come from different tables or passages of the source. No end group written: not given here. *: point of attachment. AMC = Cc1cc(=O)oc2cc(N*)ccc12
What was measured:
[1] = biological target: KpHdaH (1b) (Klebsiella pneumoniae, UniProt A0A377Z5F6); format: biochemical
[2] = tested on: Controls; format: biochemical
[3] = tested on: Controls; format: biochemical; remark: listed apart in the source
[4] = tested on: VcHdaH (5b); format: biochemical, Vibrio cholerae
[5] = biological target: LcApaH (3) (Legionella cherrii, UniProt A0A0W0SGS1); format: biochemical
[6] = biological target: PsApaH (4) (Pseudomonas sp. M30-35, UniProt A0A1Y0KY79); format: biochemical
Procedure: (§1) Experiments with SIRT2 and SIRT5 were supplemented with NAD^+ (500 µM). Thereafter, a solution of trypsin (25 µL, 5.0 mg/mL; final concentration of 2.5 mg/mL) was added, and the development of the assay was allowed to proceed for 90 min at room temperature before fluorescence analysis. […] To this end, a single category is given to all conversions >48% on the heatmap. […] For the H4-derived peptide LGKbio no positive control was available.

[7] = biological target: RwDmhA (1b) (Rhizorhabdus wittichii, UniProt A0A067XIQ6); format: biochemical
[8] = biological target: LpApaH (3) (Legionella pneumophila, UniProt A0A2S6EWV0); format: biochemical
[9] = tested on: VsHdaH (1b); format: biochemical, Vibrio sp.
[10] = tested on: RsPrpH (1b); test: Substrate screening assay (acyl-peptide-AMC); format: biochemical, Rhizorhabdus sp.
[11] = biological target: T1, BsAcuC (2c) (Bacillus subtilis, UniProt P39067); test: Substrate screening assay (acyl-peptide-AMC); format: biochemical
T1 construct: made in house; host or cells: E. coli BL21 (DE3)
T1 sequence (P39067 1-387): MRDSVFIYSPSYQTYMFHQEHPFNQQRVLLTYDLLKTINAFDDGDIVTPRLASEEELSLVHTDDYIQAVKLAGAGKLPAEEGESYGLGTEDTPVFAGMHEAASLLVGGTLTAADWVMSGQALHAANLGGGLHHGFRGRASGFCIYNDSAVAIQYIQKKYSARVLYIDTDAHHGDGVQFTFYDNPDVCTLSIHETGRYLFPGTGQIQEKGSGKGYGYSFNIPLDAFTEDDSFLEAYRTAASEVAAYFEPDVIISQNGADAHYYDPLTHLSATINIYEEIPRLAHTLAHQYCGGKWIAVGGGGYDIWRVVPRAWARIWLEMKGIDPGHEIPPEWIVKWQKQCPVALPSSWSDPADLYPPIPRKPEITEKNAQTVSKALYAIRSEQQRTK
Procedure: as §1

[12] = substrate screening, mean of two measurements
[13] = substrate screening, measurement 1 of two
[14] = substrate screening, measurement 2 of two
[15] = two measurements, single values

QPKKmyr (QPKK-{AMC}; not fully specified (residue 4); printed as QPKKmyr; also: myristoyl-lysine (which Lys not given here); UniProt P04637 317-320, looked up, fragment)
RFU means, KpHdaH (1b) ([1]; means of two measurements): 147 RFU | RFU*2 means, KpHdaH (1b) ([1]; means of two measurements): 294 RFU*2 | [AMC] (nM), KpHdaH (1b), means [1, 12]: 143.55 nM | [AMC] (nM), KpHdaH (1b) [1, 13]: 173.83 nM | [AMC] (nM), KpHdaH (1b) [1, 14]: 113.28 nM | RFU*2, KpHdaH (1b) [1, 15]: 356 RFU*2 and 232 RFU*2 | RFU, KpHdaH (1b) [1, 15]: 178 RFU and 116 RFU | RFU means, controls [2]: 6774 RFU | RFU*2, controls [2]: 12310 RFU*2 and 14786 RFU*2 | RFU*2 means, controls [2]: 13548 RFU*2 | RFU, controls [2]: 6155 RFU and 7393 RFU | [AMC] (nM), controls, means [3]: 6615.23 nM | RFU means, VcHdaH (5b) ([4]; means of two measurements): -187.5 RFU | RFU*2 means, VcHdaH (5b) ([4]; means of two measurements): -375 RFU*2 | [AMC] (nM), VcHdaH (5b), means [4, 12]: -183.11 nM | RFU means, LcApaH (3) [5]: 256.5 RFU | RFU*2 means, LcApaH (3) [5]: 513 RFU*2 | [AMC] (nM), LcApaH (3), means [5]: 250.49 nM | RFU means, PsApaH (4) ([6]; means of two measurements): 76.5 RFU | RFU*2 means, PsApaH (4) ([6]; means of two measurements): 153 RFU*2 | [AMC] (nM), PsApaH (4), means [6, 12]: 74.71 nM | [AMC] (nM), PsApaH (4) [6, 13]: 39.06 nM | [AMC] (nM), PsApaH (4) [6, 14]: 110.35 nM | RFU means, RwDmhA (1b) ([7]; means of two measurements): -605.5 RFU | RFU*2 means, RwDmhA (1b) ([7]; means of two measurements): -1211 RFU*2 | [AMC] (nM), RwDmhA (1b), means [7, 12]: -591.31 nM | [AMC] (nM), RwDmhA (1b) [7, 13]: -337.89 nM | [AMC] (nM), RwDmhA (1b) [7, 14]: -844.73 nM | RFU means, LpApaH (3) [8]: 459 RFU | RFU*2, LpApaH (3) [8]: 820 RFU*2 and 1016 RFU*2 | RFU*2 means, LpApaH (3) [8]: 918 RFU*2 | RFU, LpApaH (3) [8]: 410 RFU and 508 RFU | [AMC] (nM), LpApaH (3) [8]: 400.39 nM and 496.09 nM | [AMC] (nM), LpApaH (3), means [8]: 448.24 nM | RFU means, VsHdaH (1b) ([9]; means of two measurements): -206 RFU | RFU*2 means, VsHdaH (1b) ([9]; means of two measurements): -412 RFU*2 | [AMC] (nM), VsHdaH (1b), means [9, 12]: -201.17 nM | [AMC] (nM), VsHdaH (1b) [9, 13]: 172.85 nM | [AMC] (nM), VsHdaH (1b) [9, 14]: -575.20 nM | RFU means, RsPrpH (1b) ([10]; means of two measurements): -466 RFU | RFU*2 means, RsPrpH (1b) ([10]; means of two measurements): -932 RFU*2 | [AMC] (nM), RsPrpH (1b), means [10, 12]: -455.08 nM | [AMC] (nM), RsPrpH (1b) [10, 13]: -105.47 nM | [AMC] (nM), RsPrpH (1b) [10, 14]: -804.69 nM | RFU means, BsAcuC (2c) ([11]; means of two measurements): 540 RFU | RFU*2 means, BsAcuC (2c) ([11]; means of two measurements): 1080 RFU*2 | [AMC] (nM), BsAcuC (2c), means [11, 12]: 527.34 nM

Reference: PMC11532494 (Nature Communications, 2024)
